Patent US10689651B2, “Method of inhibiting macrophage activation using an inhibitor of PARP9” (THE BRIGHAM AND WOMEN'S HOSPITAL, INC., priority 2013, dated 2020)
“Also recorded” adds a separate entry of the source.

Biological target: T1, PARP14 (Homo sapiens, UniProt Q460N5)
T1 construct: purchased BPS Bioscience Inc
Test: Ribosylation assay: PARP14-mediated ADP-ribosylation of STAT1α
Type: biochemical
Conditions: recombinant proteins; for PARP14-induced mono ADP-ribosylation at Glu657 and Glu705 of STAT1α: LC-MS/MS, MS1 AUC quantification
Source text: The high resolution/accuracy LTQ-Orbitrap Elite (Thermo Scientific) analyzed TMT peptide samples and the Q Exactive (Thermo Scientific) analyzed in vitro ribosylated peptides. Both mass spectrometers are fronted with a Nanospray FLEX ion source, and coupled to an Easy-nLC1000 HPLC pump (Thermo Scientific). The peptides were subjected to a dual column set-up: an Acclaim PepMap RSLC C18 trap column, 75 um×20 cm (50 um×15 cm on the Q Exactive); and an Acclaim PepMap RSLC C18 analytical column 75 um×250 mm (Thermo Scientific). For TMT analysis the analytical gradient was run at 250 nl/min from 10 to 30% Solvent B (acetonitrile/0.1% formic acid) for 90 minutes, followed by five minutes of 95% Solvent B. Solvent A was 0.1% formic acid. For ribosylated peptides the gradient was run at 250 nl/min from 5 to 28% Solvent B for 30 minutes, followed by five minutes of 95% Solvent B. All reagents were HPLC-grade. […] Unmodified forms were calculated by subtracting the mass of the ADP-ribose (541. 06 Da) from the observed precursor. Modified and unmodified m/z values and corresponding retention time windows were submitted to an inclusion list and analyzed in using the data-independent acquisition module of the Q Exactive (R=35 K).
Recombinant human PARP14 and PARP9 (BPS Bioscience Inc.) proteins, and BSA (Sigma-Aldrich) were incubated with recombinant human STAT1α (OriGene Technologies, Inc.) or STAT6 protein (Sino Biological Inc.) at a final concentration of 5 ng/μl in the presence of 100 μM β-Nicotinamide adenine dinucleotide hydrate (NAD; Sigma-Aldrich) or 6-biotin-17-NAD (Trevigen, Inc.) in 50 mM Tris-HCl buffer (pH 7.4) for 1 hour at room temperature. Ribosylation of STAT1α and STAT6 was detected by LC-MS/MS after trypsin digestion or Western blotting using Streptavidin-HRP (Abcam) after SDS-PAGE. Quantification of the relative abundances of ribosylated STAT1α peptides was completed by calculating the area under the curve (AUC) of the extracted ion chromatograms (XICs) of the monoisotopic peaks of the modified versus unmodified peptides. […]

T1 sequence (Q460N5 whole entry): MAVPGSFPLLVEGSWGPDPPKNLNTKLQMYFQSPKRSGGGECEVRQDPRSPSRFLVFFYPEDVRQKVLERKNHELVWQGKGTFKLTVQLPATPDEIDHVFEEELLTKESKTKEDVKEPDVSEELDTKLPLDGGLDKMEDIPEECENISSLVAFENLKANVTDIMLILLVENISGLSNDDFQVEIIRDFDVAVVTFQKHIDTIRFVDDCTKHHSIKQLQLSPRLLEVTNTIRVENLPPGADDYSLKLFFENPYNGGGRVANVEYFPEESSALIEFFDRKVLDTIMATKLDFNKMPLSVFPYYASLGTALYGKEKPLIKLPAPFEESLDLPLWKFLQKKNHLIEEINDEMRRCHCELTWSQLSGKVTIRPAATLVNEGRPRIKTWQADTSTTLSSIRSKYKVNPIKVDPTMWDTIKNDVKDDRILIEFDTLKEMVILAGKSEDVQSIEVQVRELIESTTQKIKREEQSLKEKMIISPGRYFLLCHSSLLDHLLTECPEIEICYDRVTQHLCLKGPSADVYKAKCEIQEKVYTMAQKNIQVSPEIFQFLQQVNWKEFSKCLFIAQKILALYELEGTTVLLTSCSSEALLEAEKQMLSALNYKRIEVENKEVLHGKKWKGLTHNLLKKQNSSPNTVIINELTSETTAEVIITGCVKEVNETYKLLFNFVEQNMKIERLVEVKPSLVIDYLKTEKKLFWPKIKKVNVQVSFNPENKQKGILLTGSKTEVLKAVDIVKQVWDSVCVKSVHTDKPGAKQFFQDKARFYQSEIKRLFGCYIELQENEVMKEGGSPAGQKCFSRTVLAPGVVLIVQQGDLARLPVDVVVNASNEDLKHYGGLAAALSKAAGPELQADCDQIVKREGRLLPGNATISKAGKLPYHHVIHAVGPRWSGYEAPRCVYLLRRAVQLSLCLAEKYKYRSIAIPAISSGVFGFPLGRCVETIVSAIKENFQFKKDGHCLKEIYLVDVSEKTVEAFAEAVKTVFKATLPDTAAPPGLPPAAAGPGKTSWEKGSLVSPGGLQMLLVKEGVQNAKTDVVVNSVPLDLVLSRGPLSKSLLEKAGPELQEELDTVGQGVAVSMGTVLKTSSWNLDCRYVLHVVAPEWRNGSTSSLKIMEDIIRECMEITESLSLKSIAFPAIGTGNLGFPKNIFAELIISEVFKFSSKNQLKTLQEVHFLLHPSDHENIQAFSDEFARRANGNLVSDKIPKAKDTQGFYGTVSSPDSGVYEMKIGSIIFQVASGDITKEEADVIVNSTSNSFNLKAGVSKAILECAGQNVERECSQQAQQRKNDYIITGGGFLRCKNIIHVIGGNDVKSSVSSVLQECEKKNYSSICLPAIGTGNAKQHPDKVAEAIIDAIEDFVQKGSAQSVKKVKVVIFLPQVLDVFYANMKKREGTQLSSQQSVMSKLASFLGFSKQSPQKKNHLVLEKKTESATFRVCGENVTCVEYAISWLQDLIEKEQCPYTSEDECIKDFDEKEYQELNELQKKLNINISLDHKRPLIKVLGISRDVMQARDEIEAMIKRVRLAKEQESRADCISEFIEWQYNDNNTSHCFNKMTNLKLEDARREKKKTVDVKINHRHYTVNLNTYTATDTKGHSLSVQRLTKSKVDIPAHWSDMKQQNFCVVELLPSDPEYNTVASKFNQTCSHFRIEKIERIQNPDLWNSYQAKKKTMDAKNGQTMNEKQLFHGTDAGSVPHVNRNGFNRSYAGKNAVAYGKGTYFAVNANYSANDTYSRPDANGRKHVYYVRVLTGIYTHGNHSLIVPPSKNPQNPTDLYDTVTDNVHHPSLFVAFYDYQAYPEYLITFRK

With “recombinant PARP9: Recombinant human PARP9 protein (BPS Bioscience Inc.) added to the PARP14 ribosylation assay” the “PARP14-induced mono ADP-ribosylation at Glu657 and Glu705 of STAT1α” value was “inhibited”, the “PARP14-induced mono ADP-ribosylation at Glu657 and Glu705 of STAT1α” value (listed as PARP9) was “inhibition” and the “ADP-ribosylation of STAT1α by PARP14” value (protein ribosylation assay (Western blot)) was “suppressed; also recorded: inhibits”.
